Laboratory results from IntAct's records for PubMed 26829474.

B1: Aurora kinase B (Homo sapiens), Q96GD4 (parent)
chain: MAQKENSYPWPYGRQTAPSGLSTLPQRVLRKEPVTPSALVLMSRSNVQPTAAPGQKVMENSSGTPDILTRHFTIDDFEIGRPLGKGKFGNVYLAREKKSHFIVALKVLFKSQIEKEGVEHQLRREIEIQAHLHHPNILRLYNYFYDRRRIYLILEYAPRGELYKELQKSCTFDEQRTATIMEELADALMYCHGKKVIHRDIKPENLLLGLKGELKIADFGWSVHAPSLRRKTMCGTLDYLPPEMIEGRMHNEKVDLWCIGVLCYELLVGNPPFESASHNETYRRIVKVDLKFPASVPMGAQDLISKLLRHNPSERLPLAQVSAHPWVRANSRRVLPPSALQSVA

Variants of: B1
Details: with 2aaa_human PPP2R1A

effect of a mutation on the interaction | Variant
decreasing interaction strength | K215Q
